Residue numbers refer to the chain shown, from its start. Numbers in names are those of the source. No end group written: not given here. *: point of attachment. 5FAM = O=C1OC2(c3ccc(O)cc3Oc3cc(O)ccc32)c2ccc(C(=O)*)cc21; GABA = NCCCC(=O)O
T1: ELL2^Occ (ELL2 residues 519–640), the ELL2 part of the crystallised fusion (human, UniProt O00472 519-640, selenomethionine (SeMet crystals used for phasing and refinement))
T1 sequence (looked up): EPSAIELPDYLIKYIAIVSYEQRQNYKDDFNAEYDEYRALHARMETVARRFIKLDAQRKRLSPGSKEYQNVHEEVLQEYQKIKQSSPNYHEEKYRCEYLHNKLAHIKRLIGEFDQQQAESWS

T2: Sumo-ELL2^Occ (human, UniProt O00472 519-640)
T2 sequence (looked up): T1 sequence (looked up)

T3: Sumo-ELL2^Occ, wild type (human, UniProt O00472 519-640)
T3 sequence (looked up): T1 sequence (looked up)

B1: AFF4^ELLBow (AFF4 residues 301–351), the AFF4 part of the crystallised fusion (domain or fragment, human, UniProt Q9UHB7 301-351, looked up)
chain: PSQPLDASASGDVSCVDEILKEMTHSWPPPLTAIHTPCKTEPSKFPFPTKE
modifications: not fully specified (residue 23); cysteine pairing not given here
B2: His6-AFF4^ELLBow L331D (domain or fragment, human, UniProt Q9UHB7 301-351, looked up)
chain: B1 chain with L31D
B3: His6-AFF4^ELLBow D317P/E318P (domain or fragment, human, UniProt Q9UHB7 301-351, looked up)
chain: B1 chain with D17P, E18P
B4: His6-AFF4^ELLBow E322H (domain or fragment, human, UniProt Q9UHB7 301-351, looked up)
chain: B1 chain with E22H
B5: His6-AFF4^ELLBow F345D/F347D (domain or fragment, human, UniProt Q9UHB7 301-351, looked up)
chain: B1 chain with F45D, F47D
B6: His6-AFF4^ELLBow I319D/L320D (domain or fragment, human, UniProt Q9UHB7 301-351, looked up)
chain: B1 chain with I19D, L20D
B7: His6-AFF4^ELLBow I334D (domain or fragment, human, UniProt Q9UHB7 301-351, looked up)
chain: B1 chain with I34D
B8: His6-AFF4^ELLBow K321P (domain or fragment, human, UniProt Q9UHB7 301-351, looked up)
chain: B1 chain with K21P
B9: His6-AFF4^ELLBow L331D/I334D (domain or fragment, human, UniProt Q9UHB7 301-351, looked up)
chain: B1 chain with L31D, I34D
B10: His6-AFF4^ELLBow M323D (domain or fragment, human, UniProt Q9UHB7 301-351, looked up)
chain: B1 chain with M23D
B11: His6-AFF4^ELLBow P342D (domain or fragment, human, UniProt Q9UHB7 301-351, looked up)
chain: B1 chain with P42D
B12: His6-AFF4^ELLBow T332K (domain or fragment, human, UniProt Q9UHB7 301-351, looked up)
chain: B1 chain with T32K
B13: His6-AFF4^ELLBow V316D (domain or fragment, human, UniProt Q9UHB7 301-351, looked up)
chain: B1 chain with V16D
B14: His6-AFF4^ELLBow W327D (domain or fragment, human, UniProt Q9UHB7 301-351, looked up)
chain: B1 chain with W27D
B15: GST-ELL2 (519–640) H559E (domain or fragment, human, UniProt O00472 519-640, looked up)
chain: T1 sequence (looked up) with H41E
B16: GST-ELL2 (519–640) H608E (domain or fragment, human, UniProt O00472 519-640, looked up)
chain: T1 sequence (looked up) with H90E
B17: GST-ELL2 (519–640) K625T (domain or fragment, human, UniProt O00472 519-640, looked up)
chain: T1 sequence (looked up) with K107T
B18: His6-tagged wild-type AFF4^ELLBow (AFF4 301–351) (peptide, UniProt Q9UHB7 301-351, looked up)
chain: B1 chain
B19: His-tagged AFF4^ELLBow (301–351) E322H (peptide, UniProt Q9UHB7 301-351, looked up)
chain: B1 chain with E22H
B20: His-tagged AFF4^ELLBow (301–351) F345D/F347D (peptide, UniProt Q9UHB7 301-351, looked up)
chain: B1 chain with F45D, F47D
B21: His-tagged AFF4^ELLBow (301–351) I319D/L320D (peptide, UniProt Q9UHB7 301-351, looked up)
chain: B1 chain with I19D, L20D
B22: His-tagged AFF4^ELLBow (301–351) I319D/L320D/M323D (peptide, UniProt Q9UHB7 301-351, looked up)
chain: B1 chain with I19D, L20D, M23D
B23: His-tagged AFF4^ELLBow (301–351) I334D (peptide, UniProt Q9UHB7 301-351, looked up)
chain: B1 chain with I34D
B24: His-tagged AFF4^ELLBow (301–351) L331D (peptide, UniProt Q9UHB7 301-351, looked up)
chain: B1 chain with L31D
B25: His-tagged AFF4^ELLBow (301–351) M323D (peptide, UniProt Q9UHB7 301-351, looked up)
chain: B1 chain with M23D
B26: His-tagged AFF4^ELLBow (301–351) P342D (peptide, UniProt Q9UHB7 301-351, looked up)
chain: B1 chain with P42D
B27: His-tagged AFF4^ELLBow (301–351) W327D (peptide, UniProt Q9UHB7 301-351, looked up)
chain: B1 chain with W27D
B28: His-tagged AFF4^ELLBow (301–351) double 328–329 Pro–Gly mutant (peptide, UniProt Q9UHB7 301-351, looked up)
chain: B1 chain with P28G, P29G
B29: fluorescently labelled AFF1^ELLBow peptide 358–390 (peptide)
peptide: {5FAM-GABA}-EILKEMTHSWPPPLTAIHTPSTAEPSKFPFPTK-NH2
SMILES: CC[C@H](C)[C@H](NC(=O)[C@H](C)NC(=O)[C@@H](NC(=O)[C@H](CC(C)C)NC(=O)[C@@H]1CCCN1C(=O)[C@@H]1CCCN1C(=O)[C@@H]1CCCN1C(=O)[C@H](Cc1c[nH]c2ccccc12)NC(=O)[C@H](CO)NC(=O)[C@H](Cc1c[nH]cn1)NC(=O)[C@@H](NC(=O)[C@H](CCSC)NC(=O)[C@H](CCC(=O)O)NC(=O)[C@H](CCCCN)NC(=O)[C@H](CC(C)C)NC(=O)[C@@H](NC(=O)[C@H](CCC(=O)O)NC(=O)CCCNC(=O)c1ccc2c(c1)C(=O)OC21c2ccc(O)cc2Oc2cc(O)ccc21)[C@@H](C)CC)[C@@H](C)O)[C@@H](C)O)C(=O)N[C@@H](Cc1c[nH]cn1)C(=O)N[C@H](C(=O)N1CCC[C@H]1C(=O)N[C@@H](CO)C(=O)N[C@H](C(=O)N[C@@H](C)C(=O)N[C@@H](CCC(=O)O)C(=O)N1CCC[C@H]1C(=O)N[C@@H](CO)C(=O)N[C@@H](CCCCN)C(=O)N[C@@H](Cc1ccccc1)C(=O)N1CCC[C@H]1C(=O)N[C@@H](Cc1ccccc1)C(=O)N1CCC[C@H]1C(=O)N[C@H](C(=O)N[C@@H](CCCCN)C(N)=O)[C@@H](C)O)[C@@H](C)O)[C@@H](C)O
notes: also called fluorescent peptide

Target: AFF4, endogenous (human (endogenous in HEK 293T)) (UniProt Q9UHB7)
Assay: not given
Settings: not given

AFF4, endogenous (human (endogenous in HEK 293T)), sequence (Q9UHB7 whole entry): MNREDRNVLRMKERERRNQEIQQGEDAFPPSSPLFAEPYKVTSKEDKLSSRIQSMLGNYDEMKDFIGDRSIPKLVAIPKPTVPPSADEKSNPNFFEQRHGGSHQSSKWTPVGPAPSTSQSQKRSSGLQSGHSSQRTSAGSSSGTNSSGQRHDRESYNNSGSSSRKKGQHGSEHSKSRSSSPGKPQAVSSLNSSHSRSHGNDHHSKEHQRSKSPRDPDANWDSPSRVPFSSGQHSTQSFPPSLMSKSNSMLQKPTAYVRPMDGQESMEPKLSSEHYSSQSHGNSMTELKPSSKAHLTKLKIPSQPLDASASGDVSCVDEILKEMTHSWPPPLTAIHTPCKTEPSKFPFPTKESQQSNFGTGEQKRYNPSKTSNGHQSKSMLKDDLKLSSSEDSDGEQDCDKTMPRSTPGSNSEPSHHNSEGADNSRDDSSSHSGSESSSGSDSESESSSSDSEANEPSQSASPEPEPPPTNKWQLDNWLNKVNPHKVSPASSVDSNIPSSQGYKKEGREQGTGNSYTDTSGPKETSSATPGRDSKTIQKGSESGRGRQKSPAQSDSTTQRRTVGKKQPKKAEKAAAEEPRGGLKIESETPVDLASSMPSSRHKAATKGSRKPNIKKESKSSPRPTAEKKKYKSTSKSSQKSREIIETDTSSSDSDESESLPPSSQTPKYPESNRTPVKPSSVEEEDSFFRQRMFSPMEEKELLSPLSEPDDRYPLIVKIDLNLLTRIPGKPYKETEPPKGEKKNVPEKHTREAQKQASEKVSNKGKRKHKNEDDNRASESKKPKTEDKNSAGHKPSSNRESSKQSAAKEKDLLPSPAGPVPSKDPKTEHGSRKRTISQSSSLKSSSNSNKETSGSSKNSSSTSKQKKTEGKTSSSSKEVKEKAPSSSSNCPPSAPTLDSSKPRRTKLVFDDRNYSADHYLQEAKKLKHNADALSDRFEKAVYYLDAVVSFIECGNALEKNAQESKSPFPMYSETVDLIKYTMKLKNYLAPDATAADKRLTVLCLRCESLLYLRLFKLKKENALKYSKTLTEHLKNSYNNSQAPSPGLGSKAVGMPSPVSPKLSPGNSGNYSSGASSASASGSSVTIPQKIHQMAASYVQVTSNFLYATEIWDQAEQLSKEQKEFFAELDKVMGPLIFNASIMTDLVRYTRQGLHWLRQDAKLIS

Molecule | other (fold less than wild type)
HA-tagged ELL2^H559E/H608E/N619A/K625T (from UniProt O00472 1-640) (natural protein) | 5

Target: T1, ELL2^Occ (ELL2 residues 519–640), the …
Assay: crystal structure
Settings: both partners purified

Molecule | binding result
B1 | binds

Target: T2, Sumo-ELL2^Occ
Assay: fluorescence polarisation
Settings: both partners purified

Molecule | Kd [nM]
EILKEMTHSWPPPLTAIHTPCKTEPSKFPFPTK (peptide, UniProt Q9UHB7 318-350, looked up) [AFF4 WT, 318-350 peptide] | 4000 ± 1570
B2 | 1600 ± 310
B3 | 800 ± 180
B4 | 130 ± 33
B5 | 130 ± 58
B6 | 5400 ± 1870
B7 | 670 ± 210
B8 | 240 ± 60
B9 | 1900 ± 510
B10 | 2700 ± 1140
B11 | 200 ± 50
B12 | 69 ± 37
B13 | 230 ± 48
B14 | 370 ± 86

Target: Sumo-ELL2^Occ (human) (UniProt O00472)
Assay: fluorescence polarisation
Settings: not given

Molecule | Kd [nM]
His6-AFF4^ELLBow P328G/P329G (from UniProt Q9UHB7 301-351) (domain or fragment) | 270

Target: Sumo-ELL2^Occ, wild type (human) (UniProt O00472)
Assay: fluorescence polarisation
Settings: not given

Molecule | other [fold]
His-tagged AFF4^ELLBow (301–351) D317P/E317P (from UniProt Q9UHB7 301-351) (peptide) | 10

Target: ELL2^Occ–(Gly-Ser)4–AFF4^ELLBow (human) (UniProt O00472)
Assay: SEC; Hiload 16/60 (GE) gel filtration; elution volumes; 44 kDa and 17 kDa markers shown in panel a
Settings: not given

Molecule | stoichiometry N
ELL2^Occ–(Gly-Ser)4–AFF4^ELLBow (from UniProt O00472 519-640; Q9UHB7 301-351) | 2

Target: B18
Assay: pull-down
Settings: both partners purified

Molecule | binding result
B15 | binds
B16 | binds
B17 | binds

Target: T3, Sumo-ELL2^Occ, wild type
Assay: fluorescence polarisation
Settings: both partners purified

Molecule | Kd [nM] | other [fold] | binding result
B18 | 86 | – | –
B19 | – | < 2 | –
B20 | – | < 2 | –
B21 | – | > 25 | –
B22 | > 3000 | – | –
B23 | – | 8 | –
B24 | – | ~20 | –
B25 | – | > 25 | –
B26 | – | ~3 | –
B27 | – | 4 | –
B28 | – | 3 | –
B29 | – | – | binds
